Laboratory results published in patent publication US9217013B2, “Treatment of amyloidoses using myelin basic protein and fragments thereof” (The Research Foundation for the State University of New York, priority 2008, dated 2015).
Entries after “also recorded” stand apart in the source; their conditions may differ.

How the values were obtained:
Aβ40WT [1] = target: T1, Aβ40WT (Homo sapiens, UniProt P05067); assay: Affinity chromatography of human brain homogenate on Aβ40WT column; type: binding
Description: (§1) For some embodiments of the invention, it may be advantageous to work with purified isolates of mutant and wild-type forms of Aβ. The affinity chromatography method used in the development of embodiments of the instant invention to obtain such isolates is exemplary: To prepare affinity resins, biotinylated wild-type Aβ40 peptide (Aβ40WT) and Aβ40DI were each redissolved in 20 mM NaHCO3 buffer (pH 8.5) and applied to ImmunoPure immobilized streptavidin beads (Pierce) following the manufacturer's instructions. Immobilized ligands were cross-linked with 2 mM bis(sulfosuccinimidyl) suberate (Pierce) for 30 min with rocking at room temperature in 20 mM NaHCO3 (pH 8.5). Crosslinking reactions were stopped by the addition of 1 M Tris-HCl (pH 7.4) to a final concentration of 20 mM. Homogenates of normal human brain frontal cortex (which may obtained as biopsies) were prepared in Tris-buffered saline (50 mM Tris-HCl and 200 mM NaCl (pH 7.4)) containing complete protease inhibitor cocktail (Roche). Homogenates were centrifuged at 12,000×g for 30 min, and supernatants were loaded onto Tris-buffered saline-equilibrated affinity columns (0.8×4 cm) under gravity flow. […] Fractions were analyzed by SDS-PAGE on 10-20% Tris/glycine gradient gels. […]

Aβ40WT [2] = target: T1, Aβ40WT; assay: Co-immunoprecipitation of MBP with Aβ40WT; type: binding; conditions: purified MBP
Description: (§2) AP peptides were resuspended in Me2SO to 2.5 mM and used at 10.8 μM. MBP was used at 1.56 μM. Proteins were combined in 250 μl of incubation buffer (PBS, 0.05% Tween 20, and 1% BSA). Anti-MBP mAb 382 was added to each sample mixture and incubated for 1 h at 4° C. with rocking. After incubation, 20 μl of washed GammaBind protein G-Sepharose beads (Amersham Biosciences) were added to each mixture, followed by incubation for an additional 1 h at 4° C. with rocking. Beads were separated by centrifugation at 8000×g for 2 min. Supernatants were removed, and beads were washed with 1 ml of incubation buffer. Separation and washing were repeated three times. A final wash was performed in PBS and 0.05% Tween 20 to remove excess BSA. Centrifuged beads were combined with 25 μl of reducing SDS-PAGE loading buffer and heated as described above. 10 μl of each sample/loading buffer mixture was loaded onto 10-20% Tricine gels (Invitrogen) and electrophoresed at 125 V for 35 min. Immunoblotting was carried out as described above using either biotinylated anti-MBP mAb 384 or biotinylated anti-Aβ mAb 3D6 as primary antibody. Experiments were performed in triplicate.

Aβ42WT = Aβ42WT (Homo sapiens, UniProt P05067); assay: Co-immunoprecipitation of MBP with Aβ42WT; type: binding
Description: as §2

wild-type Aβ42 = wild-type Aβ42 (Homo sapiens, UniProt P05067); assay: Thioflavin T fluorescence assay of Aβ42 fibril formation; type: biochemical; conditions: 12.5 μM Aβ42, 1.56 μM MBP
Description: FIG. 19 Thioflavin T analysis for inhibition of Aβ42 fibril formation by MBP. Aβ42 at a concentration of 12.5 μM in PBS in the absence (diamond) or presence of 1.56 μM MBP (triangle) or 1.56 μM […]-lactalbumin (square) as control. The data shown are the mean S.D. of triplicate samples.
The Aβ B binding properties of the exemplary fragments of MBP described herein were determined in a thioflavin T fluorescence assay as follows: Lyophilized Aβ peptides were first resuspended with Me2SO to 2.5 mM, diluted to 12.5 μM in PBS, and then incubated at 37° C. with rocking either alone or with 1.56 μM MBP or bovine α-lactalbumin. Control samples containing 0.5% Me2SO and 1.56 μM MBP or lactalbumin in PBS were also included. At each time point, 100 μl samples of each reaction were placed in a 96-well microplate in triplicate, and 5 μl of 100 µM thioflavin T was added. The plate was mixed and incubated at 22° C. in the dark for 10 min. Fluorescence was measured at 490 nm with an excitation wavelength of 446 nm in a SpectraMax spectrofluorometer (Molecular Devices, Sunnyvale, Calif.) using SoftMax Pro control software. It is apparent that the method enables persons of skill in the art to determine the binding properties of MBP, variants thereof, and fragments thereof for any Aβ-peptide, including mutants thereof.

Aβ40DI [3] = target: T2, Aβ40DI (Homo sapiens, UniProt P05067, D694N/E693Q); assay: Affinity chromatography of human brain homogenate on Aβ40DI column; type: binding
Description: as §1

Aβ40DI [4] = target: T2, Aβ40DI; assay: Quantitative immunoblot analysis of Aβ40DI fibril assembly; type: biochemical; conditions: 12.5 μM Aβ40DI, 1.56 μM MBP, up to 12 h
Description: Aβ40DI (12.5 μM) was incubated in the absence (A and D) or presence (C and F) of 1.56 […] purified MBP. Bovine a-lactalbumin (Lalb. 1.56 μM) was included as a negative control (B and E). Aliquots were removed at specific time points and analyzed by quantitative immunoblot analysis using anti-Aβ mAb 6E10. […] Data represent the means±S.D. of three separate experiments.
Briefly, samples were heated at 90° C. for 5 min in reducing SDS-PAGE loading buffer, loaded onto gels, and electrophoresed. Gels were transferred to Hybond ECL nitrocellulose membranes (Amersham Biosciences) at 50 V overnight at 4° C. Membranes were blocked in PBS containing 5% milk or bovine serum albumin (BSA; used with biotinylated primary antibodies) at room temperature for 1 h and washed 3×10 min with PBS and 0.05% Tween 20. Membranes were incubated with primary antibodies for 1 h and washed as described above. Next, the membranes were incubated with either horseradish peroxidase-conjugated sheep anti-mouse IgG or horseradish peroxidase-conjugated streptavidin (both from Amersham Biosciences) for 1 h and washed. Detection was accomplished using ECL Western blotting substrate (Pierce), and images were captured either on film or using a VersaDoc 3000 imaging system (Bio-Rad) and quantitated with the manufacturer's Quantity One software.

B1: myelin basic protein (protein)
chain: ASQKRPSQRHGSKYLATASTMDHARHGFLPRHRDTGILDSIGRFFGGDRGAPKRGSGKDSHHPARTAHYGSLPQKSHGRTQDENPVVHFFKNIVTPRTPPPSQGKGRGLSLSRFSWGAEGQRPGFGYGGRASDYKSAHKGFKGVDAQGTLSKIFKLGGRDSRSGSPMARR
notes: myelin basic protein, major form about 18.5 Kd (170 residues); purified protein
Aβ40WT [1]
  capture on Aβ40WT affinity column: not captured
Aβ40WT [2]
  binding by immunoprecipitation: bound
Aβ42WT
  interaction in co-immunoprecipitation: interacts
wild-type Aβ42
  inhibition of wild-type Aβ42 fibrillogenesis (thioflavin T): prevents fibrillization; also recorded: inhibited
Aβ40DI [3]
  capture on Aβ40DI affinity column: captured; also recorded: preferentially binds
Aβ40DI [4]
  accumulation of high molecular mass species of Aβ40DI: allows no high molecular mass species of Aβ40DI to accumulate
